From publication doi:10.1101/2023.09.30.560296 (bioRxiv, 2023)
Where “and” joins values, the source holds several entries; their conditions need not be identical. Equal values may be shown once. Square brackets hold non-standard residues; d marks the D form. Ends that are not written are not given here. * marks the point of attachment. FITC = O=C1OC2(c3ccc(O)cc3Oc3cc(O)ccc32)c2ccc(NC(=S)*)cc21; pS = N[C@@H](COP(=O)(O)O)C(=O)O; Ahx = NCCCCCC(=O)O

How the values were obtained:
GST-fused LC3B [1] = target: T1, GST-fused LC3B (UniProt Q9GZQ8 1-120); test: Microfluidic Diffusional Sizing
GST-fused LC3B [2] = target: T1, GST-fused LC3B; test: SPR

Kd (GST-fused LC3B [1])	Kd (GST-fused LC3B [2])	Binder	further results
	36.7 µM	{FITC-Ahx}-NSSGSSED[pS]FVEIRAAE [FITC-Ahx OPTN LIR peptide 169-185 (pS177 M183A)]	
14.3 µM and 13.7 µM		{FITC-Ahx}-NSSGSSED[pS]FVEIRMAE [FITC-Ahx OPTN LIR peptide 169-185 (pS177)]	

The remaining lines, values behind:

Binder	Kd (GST-fused LC3B [1])	Kd (GST-fused LC3B [2])	further results
{FITC-Ahx}-NSSGSSEDSWVEIRMAE [FITC-Ahx OPTN LIR peptide 169-185 (F178W)]	15.9 µM		
{FITC-Ahx}-NSSGSSEDDFVEIRMAE [FITC-Ahx OPTN LIR peptide 169-185 (S177D)]	44.8 µM	36.7 µM	
{FITC-Ahx}-NSSGSSED[pS]AVEIRMAE [FITC-Ahx OPTN LIR peptide 169-185 (pS177 F178A)]		> 100 µM	fold increase of Kd against pS177 (GST-fused LC3B [1]): 5 fold
{FITC-Ahx}-NSSGSSEDEFVEIRMAE [FITC-Ahx OPTN LIR peptide 169-185 (S177E)]	42.8 µM		
{FITC-Ahx}-NSSGSSED[pS]WVEIRMAE [FITC-Ahx OPTN LIR peptide 169-185 (pS177 F178W)]			fold increase of binding affinity against pS177 (GST-fused LC3B [1]): 7 fold
